# Patent publication US8367390B2, “Galactanase variants” (Novozymes A/S, priority 2002, dated 2013)
# Assay: Activity with ONPG, release of o-nitrophenol (ONP) at 405 nm
# Format: biochemical
# Description: The activity of HIGAL and MTGAL with ONPG was tested by mixing 200 microliters (normally 5.5 mg/ml) ONPG in 50 mM sodium acetate, 1 mM CaCl2, 0.01% Triton X-100, pH 6.5 with 25 microliters galactanase (normally 1 mg/ml) in the well of a microtiter plate. Release of o-nitrophenol (ONP) was measured at room temperature at 405 nm every 10 seconds normally for 30 min on a SpectraMaxPlus (Molecular Devices). Effects on the observed release of ONP was studied with varied enzyme concentration, ONPG concentration and with addition of galactose (Gal), beta-1,4-galactobiose (Gal2) (Megazyme), beta-1,4-galactotriose (Gal3), beta-1,4-galactotetraose (Gal4), glucose (Glu), arabinose (Ara), galacturonic acid (GalA), maltose (Mal) or maltotriose (Mal3).
# In Tables 8-11 below, incubation times required to increase the observed absorbance at 405 nm by given amounts are listed. Cells marked ‘n.r.’ indicate that the increase in absorbance was not reached in the experiment. In general, the initial increase in absorbance at 405 nm was very slow, but after a lag phase the rate of ONP release often increased drastically—often approximately exponentially. The most likely explanation for the observed kinetics is that ONPG reacts with the enzyme to give an enzyme-galactosyl intermediate which hydrolyses very slowly. Instead, the Gal of the intermediate is released by transglycosylation, initially with ONPG or added sugar as acceptor. In cases where the rate of ONP release increases, these transglycosylation products are even better acceptors than the initial ones. […] More likely, Gal inhibits the subsequent transglycosylation, which requires binding of ONPG to the +1 and +2 subsites, e.g., by binding to the +2 subsite. With 50 mg/ml Gal added (results not shown) release of ONP was even slower with only insignificant increase of absorbance at 405 nm in 30 min.
# [1] = Table 8, enzyme 28 μg/ml, ONPG 5 mg/ml, no sugar
# [2] = Table 8, enzyme 55 μg/ml, ONPG 5 mg/ml, Gal 5 mg/ml
# [3] = Table 8, enzyme 55 μg/ml, ONPG 5 mg/ml, no sugar
# [4] = Table 8, enzyme 110 μg/ml, ONPG 5 mg/ml, Gal 5 mg/ml
# [5] = Table 8, enzyme 110 μg/ml, ONPG 5 mg/ml, no sugar
# [6] = Table 9, enzyme 110 μg/ml, ONPG 1.25 mg/ml
# [7] = Table 9, enzyme 110 μg/ml, ONPG 2.5 mg/ml
# [8] = Table 9, enzyme 110 μg/ml, ONPG 5 mg/ml
# [9] = Table 9, enzyme 110 μg/ml, ONPG 10 mg/ml
# [10] = Table 10, enzyme 110 μg/ml, ONPG 5 mg/ml, Gal2 0.05 mg/ml
# [11] = Table 10, enzyme 110 μg/ml, ONPG 5 mg/ml, Gal2 0.5 mg/ml
# [12] = Table 10, enzyme 110 μg/ml, ONPG 5 mg/ml, Gal3 0.05 mg/ml
molecule,measurement,setting,value
"HIGAL: GH Family 53 galactanase from Humicola insolens, SEQ ID NO: 2 (wild type parent) (protein, listed as Humicola insolens, mat_peptide (1)..()) ALQYKGVDWSSVMVEERAGVRYKNVNGQEKPLEYILAENGVNMVRQRVWVNPWDGNYNLDYNIQLARRAKAAGLGLYINFHYSDTWADPAHQTTPAGWPSDINNLAWKLYNYTLDSMNRFADAGIQVDIVSIGNEITQGLLWPLGKTNNWYNIARLLHSAAWGVKDSRLNPKPKIMVHLDNGWNWDTQNWWYTNVLSQGPFEMSDFDMMGVSFYPFYSASATLDSLRRSLNNMVSRWGKEVAVVETNWPTSCPYPRYQFPADVRNVPFSAAGQTQYIQSVANVVSSVSKGVGLFYWEPAWIHNANLGSSCADNTMFTPSGQALSSLSVFHRI",Effect of Ara on ONP release,Ara 5 mg/ml,about three times slower ONP release
same,Slowing of ONP release by addition of Gal,Gal 5 mg/ml,a factor of three
same,Effect of GalA on ONP release,GalA 5 mg/ml,weak inhibitory effect
same,Effect of GalA on ONP release,GalA 50 mg/ml,slows ONP release by about a factor two
same,Effect of Glu on ONP release,Glu 5 mg/ml,slight inhibitory effect
same,ONP release in 30 min,"Glu 50 mg/ml, results not shown",< 0.02
same,Effect of Mal or Mal3 on ONP release,Mal or Mal3 5 mg/ml,no significant effects on ONP release
same,ONP release compared at identical enzyme dosage,Table 8,faster than MTGAL
same,Time (min) to increase A405 by: 0.025,[1],41.4 min
same,Time (min) to increase A405 by: 0.05,[1],46.5 min
same,Time (min) to increase A405 by: 0.1,[1],51.0 min
same,Time (min) to increase A405 by: 0.2,[1],56.5 min
same,Time (min) to increase A405 by: 0.4,[1],n.r.
same,Time (min) to increase A405 by: 0.8,[1],n.r.
same,Time (min) to increase A405 by: 1.6,[1],n.r.
same,Time (min) to increase A405 by: 3.2,[1],n.r.
same,Time (min) to increase A405 by: 0.025,[2],57.0 min
same,Time (min) to increase A405 by: 0.05,[2],n.r.
same,Time (min) to increase A405 by: 0.1,[2],n.r.
same,Time (min) to increase A405 by: 0.2,[2],n.r.
same,Time (min) to increase A405 by: 0.4,[2],n.r.
same,Time (min) to increase A405 by: 0.8,[2],n.r.
same,Time (min) to increase A405 by: 1.6,[2],n.r.
same,Time (min) to increase A405 by: 3.2,[2],n.r.
same,Time (min) to increase A405 by: 0.025,[3],20.4 min
same,Time (min) to increase A405 by: 0.05,[3],22.9 min
same,Time (min) to increase A405 by: 0.1,[3],25.4 min
same,Time (min) to increase A405 by: 0.2,[3],28.0 min
same,Time (min) to increase A405 by: 0.4,[3],30.9 min
same,Time (min) to increase A405 by: 0.8,[3],32.0 min
same,Time (min) to increase A405 by: 1.6,[3],35.0 min
same,Time (min) to increase A405 by: 3.2,[3],37.9 min
same,Time (min) to increase A405 by: 0.025,[4],32.0 min
same,Time (min) to increase A405 by: 0.05,[4],35.7 min
same,Time (min) to increase A405 by: 0.1,[4],41.5 min
same,Time (min) to increase A405 by: 0.2,[4],46.7 min
same,Time (min) to increase A405 by: 0.4,[4],52.7 min
same,Time (min) to increase A405 by: 0.8,[4],59.0 min
same,Time (min) to increase A405 by: 1.6,[4],n.r.
same,Time (min) to increase A405 by: 3.2,[4],n.r.
same,Time (min) to increase A405 by: 0.025,[5],9.0 min
same,Time (min) to increase A405 by: 0.05,[5],10.3 min
same,Time (min) to increase A405 by: 0.1,[5],11.5 min
same,Time (min) to increase A405 by: 0.2,[5],12.7 min
same,Time (min) to increase A405 by: 0.4,[5],13.8 min
same,Time (min) to increase A405 by: 0.8,[5],15.0 min
same,Time (min) to increase A405 by: 1.6,[5],15.0 min
same,Time (min) to increase A405 by: 3.2,[5],17.7 min
same,Time (min) to increase A405 by: 0.025,[6],28.7 min
same,Time (min) to increase A405 by: 0.05,[6],n.r.
same,Time (min) to increase A405 by: 0.1,[6],n.r.
same,Time (min) to increase A405 by: 0.2,[6],n.r.
same,Time (min) to increase A405 by: 0.4,[6],n.r.
same,Time (min) to increase A405 by: 0.8,[6],n.r.
same,Time (min) to increase A405 by: 1.6,[6],n.r.
same,Time (min) to increase A405 by: 3.2,[6],n.r.
same,Time (min) to increase A405 by: 0.025,[7],9.7 min
same,Time (min) to increase A405 by: 0.05,[7],11.3 min
same,Time (min) to increase A405 by: 0.1,[7],12.7 min
same,Time (min) to increase A405 by: 0.2,[7],14.0 min
same,Time (min) to increase A405 by: 0.4,[7],15.5 min
same,Time (min) to increase A405 by: 0.8,[7],17.3 min
same,Time (min) to increase A405 by: 1.6,[7],19.5 min
same,Time (min) to increase A405 by: 3.2,[7],22.8 min
same,Time (min) to increase A405 by: 0.025,[8],6.0 min
same,Time (min) to increase A405 by: 0.05,[8],8.0 min
same,Time (min) to increase A405 by: 0.1,[8],9.2 min
same,Time (min) to increase A405 by: 0.2,[8],10.2 min
same,Time (min) to increase A405 by: 0.4,[8],11.3 min
same,Time (min) to increase A405 by: 0.8,[8],12.5 min
same,Time (min) to increase A405 by: 1.6,[8],13.8 min
same,Time (min) to increase A405 by: 3.2,[8],15.3 min
same,Time (min) to increase A405 by: 0.025,[9],6.3 min
same,Time (min) to increase A405 by: 0.05,[9],7.7 min
same,Time (min) to increase A405 by: 0.1,[9],8.8 min
same,Time (min) to increase A405 by: 0.2,[9],10.0 min
same,Time (min) to increase A405 by: 0.4,[9],11.2 min
same,Time (min) to increase A405 by: 0.8,[9],12.3 min
same,Time (min) to increase A405 by: 1.6,[9],13.5 min
same,Time (min) to increase A405 by: 3.2,[9],14.7 min
same,Initial rate (mOD/min),[10],2 mOD/min
same,Time (min) to increase A405 by: 0.025,[10],5.5 min
same,Time (min) to increase A405 by: 0.05,[10],6.8 min
same,Time (min) to increase A405 by: 0.1,[10],8.2 min
same,Time (min) to increase A405 by: 0.2,[10],9.5 min
same,Time (min) to increase A405 by: 0.4,[10],10.7 min
same,Time (min) to increase A405 by: 0.8,[10],11.8 min
same,Time (min) to increase A405 by: 1.6,[10],13.3 min
same,Time (min) to increase A405 by: 3.2,[10],15.2 min
same,Initial rate (mOD/min),[11],6 mOD/min
same,Time (min) to increase A405 by: 0.025,[11],2.7 min
same,Time (min) to increase A405 by: 0.05,[11],3.5 min
same,Time (min) to increase A405 by: 0.1,[11],4.8 min
same,Time (min) to increase A405 by: 0.2,[11],6.0 min
same,Time (min) to increase A405 by: 0.4,[11],7.2 min
same,Time (min) to increase A405 by: 0.8,[11],8.3 min
same,Time (min) to increase A405 by: 1.6,[11],9.7 min
same,Time (min) to increase A405 by: 3.2,[11],11.0 min
same,Initial rate (mOD/min),[12],40 mOD/min
same,Time (min) to increase A405 by: 0.025,[12],0.5 min
same,Time (min) to increase A405 by: 0.05,[12],1.0 min
same,Time (min) to increase A405 by: 0.1,[12],1.7 min
same,Time (min) to increase A405 by: 0.2,[12],2.3 min
same,Time (min) to increase A405 by: 0.4,[12],3.3 min
same,Time (min) to increase A405 by: 0.8,[12],4.8 min
same,Time (min) to increase A405 by: 1.6,[12],6.3 min
same,Time (min) to increase A405 by: 3.2,[12],7.7 min
